# Assay results published in patent US20220008545A1 (Bicycle, published 2022).
# Starred links: 1 amine or outer side, 2 acyl side, 3 side chain; linkers in the order of their positions; H or OH if unused. Positions of bridges follow the written chain, without caps; N, C: chain ends. No end group written: not given here. TBMB = c1c(C[*:1])cc(C[*:3])cc1C[*:2]
# T1: fibroblast activation protein α (FAPα) (UniProt Q12884 26-760, limits assumed)
# T1 sequence (looked up): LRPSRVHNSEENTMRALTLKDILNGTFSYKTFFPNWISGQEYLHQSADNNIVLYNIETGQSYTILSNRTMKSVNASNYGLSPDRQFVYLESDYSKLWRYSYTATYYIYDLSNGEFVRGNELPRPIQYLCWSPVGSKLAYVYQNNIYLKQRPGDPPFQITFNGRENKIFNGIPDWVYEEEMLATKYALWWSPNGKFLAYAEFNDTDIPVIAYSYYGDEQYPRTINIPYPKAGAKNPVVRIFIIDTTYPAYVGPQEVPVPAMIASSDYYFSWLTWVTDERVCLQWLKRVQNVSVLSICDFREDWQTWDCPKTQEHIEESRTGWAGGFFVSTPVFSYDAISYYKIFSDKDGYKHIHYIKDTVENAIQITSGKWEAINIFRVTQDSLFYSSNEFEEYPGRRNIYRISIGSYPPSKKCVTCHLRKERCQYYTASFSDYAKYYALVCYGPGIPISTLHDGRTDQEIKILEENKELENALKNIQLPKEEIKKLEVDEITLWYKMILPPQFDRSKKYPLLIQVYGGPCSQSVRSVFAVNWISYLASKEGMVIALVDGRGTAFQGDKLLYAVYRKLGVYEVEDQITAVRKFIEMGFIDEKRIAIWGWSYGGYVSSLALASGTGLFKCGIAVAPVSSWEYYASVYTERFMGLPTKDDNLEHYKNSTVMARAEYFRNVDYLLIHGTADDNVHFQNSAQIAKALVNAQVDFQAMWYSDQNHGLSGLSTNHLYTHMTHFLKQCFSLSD
# Experiments:
# [1] = target: T1, fibroblast activation protein α (FAPα); test: cell-based or functional assay
# [2] = target: T1, fibroblast activation protein α (FAPα); test: fluorescence polarization FAPα binding assay
# Experimental: FAPα binding was measured using the fluorescence polarization assay methodology described in Yanagisawa et al (1997) J Biol Chem 272(13), 8539-8545. FAPα enzyme inhibition was measured using the assay methodology described in Poplawski et al (2013) J Med Chem 56(9), 3467-3477.
Binder,FAPα Enzyme Inhibition IC50 [1],Ki [2]
"ACHSDYLICPYGDFFCA (linker 2-9-16 via TBMB, all L-amino acids; also called CiHSDYLICiiPYGDFFCiii with N- and C-terminal Ala) [A-(SEQ ID NO: 1)-A]",1330 nM,113 nM
"ACDDCLISMRDACA (linker 2-5-13 via TBMB, all L-amino acids) [A-(SEQ ID NO: 4)-A]",16700 nM,1720 nM

# Other lines, results leading:
FAPα Enzyme Inhibition IC50 [1],Ki [2],Binder
> 50000 nM,4520 nM,"ACTDCDTDSLIYCA (linker 2-5-13 via TBMB, all L-amino acids) [A-(SEQ ID NO: 2)-A]"
5760 nM,578 nM,"ACPPTEYDCLIFFSECA (linker 2-9-16 via TBMB, all L-amino acids; also called CiPPTEYDCiiLIFFSECiii with N- and C-terminal Ala) [A-(SEQ ID NO: 3)-A]"
